Patent publication US12427188B2, “Pyocyanine demethylases and related phenazine degrading agents compositions, methods and systems for interfering with viability of bacteria” (priority 2020, dated 2025)
Substitutions are numbered along the chain they refer to. Numbers in names are those of the source.

B1: PodA^D72A: PodA active site variant D72A (protein)
chain: MTGKTKPAIIGGVAITALAAAGLGVWLFTDGRGGRSTTEPVTMTLDVKNDQVAKHDFGKPGMDVGDMDIFSAILSVDGKQVGYDGGACFFTNVTPDNPMTYCELTIHLDAGEIFARSLTPHTLAPFTMAITGGTGEYANSKGELTVSGVATPDEKYELKLTK
B2: PodA^Y156A: PodA active site variant Y156A (protein)
chain: B1 chain with A72D, Y156A
B3: PodA^H121R: PodA active site variant H121R (protein)
chain: B1 chain with A72D, H121R
B4: PodA^H121K: PodA active site variant H121K (protein)
chain: B1 chain with A72D, H121K
B5: PodA^Y156F: PodA active site variant Y156F (protein)
chain: B1 chain with A72D, Y156F
B6: PodA^E154A: PodA active site variant E154A, inactive (protein)
chain: B1 chain with A72D, E154A
B7: PodA^D68A: PodA variant inhibiting product release, D68A (protein)
chain: B1 chain with D68A, A72D
B8: PodA^H121A: PodA active site variant H121A (protein)
chain: B1 chain with A72D, H121A
B9: PodA8: Designed PodA41-162 variant: A53N, I73R, A87V, T91V, A129V (protein)
chain: VTMTLDVKNDQVNKHDFGKPGMDVGDMDIFSDRLSVDGKQVGYDGGVCFFVNVTPDNPMTYCELTIHLDAGEIFARSLTPHTLAPFTMVITGGTGEYANSKGELTVSGVATPDEKYELKLTK
B10: PodA2: Designed PodA41-162 variant: I73T, A87V, T91V, M99V, A129V (protein)
chain: B9 chain with N13A, R33T, M59V
B11: PodA7: Designed PodA41-162 variant: I73L, A87I, T91V, M99T, A129V (protein)
chain: B9 chain with N13A, R33L, V47I, M59T
B12: PodA3: Designed PodA41-162 variant: I73K, A87V, T91V, M99V, A129V (protein)
chain: B9 chain with N13A, R33K, M59V
B13: PodA9: Designed PodA41-162 variant: I73K, A87V, T91V, A129V, K141T (protein)
chain: B9 chain with N13A, R33K, K101T
B14: PodA5: Designed PodA41-162 variant: I73L, A87I, M99V, A129V, K141T (protein)
chain: B9 chain with N13A, R33L, V47I, V51T, M59V, K101T
B15: PodA6: Designed PodA41-162 variant: I73R, A87V, T91V, M99V, A129T (protein)
chain: B9 chain with N13A, M59V, V89T
B16: WT PodA30-162: Truncated wild-type pyocyanin demethylase PodA, residues 30-162, SEQ ID NO: 2 (protein)
chain: MDGRGGRSTTEPVTMTLDVKNDQVAKHDFGKPGMDVGDMDIFSDILSVDGKQVGYDGGACFFTNVTPDNPMTYCELTIHLDAGEIFARSLTPHTLAPFTMAITGGTGEYANSKGELTVSGVATPDEKYELKLTKAENLYFQ
modifications: Sybthetic Polypeptide
B17: PodA1030-162: PodA10 of SEQ ID NO: 2: A24N, I44T, A58V, M70V, A100T (protein)
chain: B16 chain with A25N, I45T, A59V, M71V, A101T
modifications: Sybthetic Polypeptide
B18: PodA830-162: PodA8 of SEQ ID NO: 2: A24N, I44R, A58V, T62V, A100V (protein)
chain: B16 chain with A25N, I45R, A59V, T63V, A101V
modifications: Sybthetic Polypeptide

Columns and labels:
[1] = Continuous spectrophotometric PYO demethylation assay (specific activity and kinetics of PodA); assay type: biochemical; conditions: for catalytic efficiency compared with PodA^WT: Michaelis-Menten kinetics, 3 μM protein
Method: Specific activity and kinetics of PodA. To determine specific activity and kinetic parameters of PodA for PYO, a continuous spectrophotometric assay monitoring the absorbance of PYO (690 nm) was utilized. Briefly, assays were performed at 25° C. in 100 μL reaction volumes in 96-well plates and reactions were monitored at 690 nm over 10 min. Reaction mixtures contained Phosphate buffer (50 mM, pH 6.0), ethylene glycol (1%, v/v), protein (3 μM) and substrate (for specific activity, 100 μM, for kinetics, varying). Data were acquired using the SpectraMax® M3 Microplate Reader (Molecular Devices) using the Soft Max Pro software every 10 s over 10 min. Path lengths for each well were calculated using Soft Max Pro endpoint readings and slopes were corrected for path lengths of 1 cm.
Specific activity was calculated from the slope of the linear range of (ΔOD690 min^−1) using Beer's Law (A=εcl) with a path length of 1 cm and the molar extinction coefficient of PYO (4,130 M^−1 cm^−1). Equation was solved for c, giving specific activity in nmol min^−1 mg^−1 of PodA. For kinetic parameters, graphs of initial velocity (μM s^−1) versus substrate concentration (μM) were plotted using Prism v8 (GraphPad). The Michaelis-Menten kinetics model was used to determine Km and Vmax. The turnover number (kcat) was determined using the following equation: Vmax=kcat[E], where [E] was the concentration of PodA added. All spectrophotometric assays mentioned above were completed thrice, each in technical triplicate with a representative data set shown. Error bars represent standard deviation as calculated by Prism v8 (GraphPad). Standard deviation for kcat and Kcat KM^−1 was calculated using standard formulas for propagation of error.

[2] = Protein yield of PodA variants purified from inclusion bodies of overexpression culture; conditions: purified from inclusion bodies, per L of E. coli overexpression culture
Method: Protein overproduction and purification of soluble and inclusion body fractions. Plasmids coding for proteins of interest were transformed into E. coli BL21 […]. […]. Cultures were grown at 37° C. with shaking to an optical density of 0.4 (OD600 nm) and plasmid expression was induced with IPTG (50 μM) and shaken overnight at 16° C. Cells were harvested by centrifugation at 5,000×g for 10 min in a Beckman Coulter Avanti J-20 XOI refrigerated centrifuge using a JLA-8.1000 rotor at 4° C. Cell pellets were stored at −80° C. until used.
For purification of PodA from inclusion bodies, the pellets remaining following lysis and centrifugation at 40,000×g were resuspended in 20 mL of detergent buffer [50 mM HEPES (pH 7.5) and 1% Triton-X (v/v)] using a Bio-gen PRO200 cell homogenizer (PRO Scientific). Sample was spun for 15 min at 40,000×g at 4° C. in a Beckman Coulter Avanti centrifuge with a JA-25.50 rotor. Supernatant was discarded and the remaining cell pellet was resuspended in 5 mL of buffer [50 mM HEPES (pH 7.5), 500 mM NaCl] using a cell homogenizer, supplemented with lysozyme (200 μg mL^−1), and incubated for 10 min. Volume was increased to 20 mL with HEPES (50 mM, pH 7) and sample was spun for 40,000×g at 4° C. for 15 min. Supernatant was discarded and pellet was homogenized in 10 mL of denaturing buffer 50 mM HEPES (pH 7.5), 500 mM NaCl, and 8M urea) and incubating rocking overnight. The sample was spun at for 40,000×g at 25° C. for 30 min and supernatant was incubated with 1 mL HisPur Ni-NTA resin (Thermo Fisher Scientific) on a rocking platform for 10 min. Beads were allowed to settle without shaking, supernatant was discarded, and resin was pipetted into glass gravity columns. Resin was washed with 15 mL of denaturing buffer, followed by an elution with denaturing buffer supplemented with imidazole (500 mM). Fractions were analyzed by SDS-PAGE and those containing protein were combined into SnakeSkin 3.5 K MWCO dialysis tubing (Thermo Fisher Scientific). Urea was slowly dialyzed out in HEPES (50 mM, pH 7.5) and NaCl (500 mM) by lowing urea concentrations by 1 M increments. Each step was dialyzed at RT for 30 min. Protein was dialyzed in HEPES (50 mM, pH 7.5), NaCl (500 mM), and imidazole (20 mM) overnight at 4° C. The following day, protein was cleaved for 3 h at 25° C. with TEV protease (1:50 mg:mg ratio of TEV to PodA). The sample was applied to a HisPur gravity column and cleaved protein in the flow thru was confirmed by SDS-PAGE. Cleaved PodA protein was then dialyzed for storage for 3 h at 4° C. in HEPES (50 mM pH 7.5), NaCl (250 mM) and finally in HEPES (50 mM, pH 7.5), NaCl (100 mM), and glycerol (20%, v/v). Protein concentration was established on a NanoDrop™ using the extinction coefficient and MW of each protein. Protein was drop frozen in LN2 and stored at −80° C. until use.

[3] = pH 6, 1% ethylene glycol, PodA 3 μM, substrate PYO

Molecule | Activity of active site variants compared to controls ([1]; PodA 3 μM, PYO varying) | Yield [2] | also measured
B1 | did not have measurable activity | – | –
B2 | did not have measurable activity | – | –
B3 | did not have measurable activity | – | –
B4 | did not have measurable activity | – | –
B5 | did not have measurable activity | – | –
B6 | did not have measurable activity | – | –
B7 | – | – | Michaelis-Menten behaviour ([1]; PodA 3 μM, PYO varying): maintained similar Michaelis-Menten trends for concentrations of PYO under 100 μM, after which Vmax leveled off
B8 | did not have measurable activity | – | –
B9 | – | 2.1 mg/L^−1 | catalytic efficiency compared with PodA^WT [1]: no change in catalytic efficiency; PYO demethylation activity relative to wild type ([1]; PYO 50 μM, PodA variants 3 μM): wild-type activity was maintained
B10 | – | 16.1 mg/L^−1 | –
B11 | – | 4.1 mg/L^−1 | –
B12 | – | 9.45 mg/L^−1 | –
B13 | – | 1.28 mg/L^−1 | –
B14 | – | 9.9 mg/L^−1 | –
B15 | – | 4.4 mg/L^−1 | –
B16 | – | – | pH of optimal activity ([1]; buffers pH 5.5-10.0, PodA 3 μM, PYO 100 μM): 6; Effect of salts (NaCl and KCl) on activity ([1]; cystic fibrosis sputum range, 66 mM Na+, 15 mM K+): did not inhibit or enhance; Effect of higher glycerol concentrations on the activity increase ([1]; glycerol 5 to 20%): reversed this activity increase; Km [1, 3]: 372 µM; catalytic efficiency [1, 3]: 4.73±0.24×10^2 M^−1 s^−1; kcat [1, 3]: 0.176 ± 0.003 s⁻¹; Effect of slight increase in viscosity (ethylene glycol or glycerol 1% v/v) on activity ([1]; pH 6, PodA 3 μM, PYO 100 μM): enhanced; catalytic efficiency ([1]; protein from soluble fraction): 1.05±0.093×10^2 M^−1 s^−1; catalytic efficiency ([1]; protein purified from inclusion bodies, denatured and refolded): 1.14±0.25× 10^2 M^−1 s^−1
B17 | – | – | catalytic efficiency compared with PodA^WT [1]: slight increase in efficiency
B18 | – | – | catalytic efficiency compared with PodA^WT [1]: no change
